This data set can be described thus: soluble on expression in E. coli; label from the status in PepcDB or PDB records.
For the sequence “MRRNRFLAPLLVAASLLATAPAHGQPAPAAVLASDEAQRIALDAYVYVYPLVVMDLSRRQDTGGKGPGHAPANTFAHERRLPQADFRRLPRPNFDMLRSSAWLDLSTGPVVISTPETHGRLYTLSVLDMWTDIFAVLGKRTTGTARGNHAIVPPGWTGVLPRGMHRIDAPTAQVQARLYVQTGGSSEYPGVHAVQDGFILTPLAEWNQQAQSVRLRSDPDLDALTPAQQQVEGMNAEDYFGYAAELLRKHAPHATDQPMLARLRRLGIAPGQQLAFARLPTTVQQALRHAVRNGPQALRDSLPATGSLANGWQADADGAGVYGNAYLRRAVTTQARLGASLPEDVTAMLLLADAAGRPLEGGQRYVLRFEADQLPPAGALWSLNAYDAQGYPVGNGFNRYALGDRDPVRYNPDGSLELYLQRDPPGPDDQANWLPTGEGAPGVILRIYLPQASVLAGRWVPPAARRVEAADDAAALEHHHHHH”, the “soluble on expression in E. coli” value is on record as “not soluble”. The entry for “SASNYPAYMDNYLKEVINQVEEETGYNLLTTGMDVYTNVDQEAQKHLWDIYNTDEYVAYPDDELQVASTIVDVSNGKVIAQLGARHQSSNVSFGINQAVETNRDWGSTMKPITDYAPALEYGVYDSTATIVHDEPYNYPGTNTPVYNWDRGYFGNITLQYALQQSRNVPAVETLNKVGLNRAKTFLNGLGIDYPSIHYSNAISSNTTESDKKYGASSEKMAAAYAAFANGGTYYKPMYIHKVVFSDGSEKEFSNVGTRAMKETTAYMMTDMMKTVLSYGTGQNAYLAWLPQAGKTGTSNYTDEEIENHIKTSQFVAPDELFAGYTRKYSMAVWTGYSNRLTPLVGNGLTVAAKVYRSMMTYLSEGSNPEDWNIPEGLYRNGEFVFKNGAR” is “soluble”. The result for “MSLALLNVDKLSVHFGDESAPFRAVDRISYSVKQGEVVGIVGESGSGKSVSSLAIMGLIDYPGRVMAEKLEFNGQDLQRISEKERRNLVGAEVAMIFQDPMTSLNPCYTVGFQIMEAIKVHQGGNKSTRRQRAIDLLNQVGIPDPASRLDVYPHQLSGGMSQRVMIAMAIACRPKLLIADEPTTALDVTIQAQIIELLLELQQKENMALVLITHDLALVAEAAHKIIVMYAGQVVETGDAHAIFHAPRHPYTQALLRALPEFAQEGHHHHHH” reads “not soluble”; that for “SNAMPVRVIVDSSACLPTHVAEDLDITVINLHVMNNGEERSTSGLSSLELAASYARQLERGGDDGVLALHISKELSSTWSAAVTAAAVFDDDSVRVVDTSSLGMAVGAAAMAAARMAKDGASLQECYDIAVDTLKRSETWIYLHRIDEIWKSGRISTATAMVSTALATRPIMRFNGGRMEIAAKTRTQSKAFAKLVELAQIRADGEPVFIAIGQNEAREAAKQLEELLRNALPEGSSFMSVDIDPTLAVHSGPGAVSVSAVFANQAPELSTGKAGAK”, “soluble”; that for “MGSDKIHHHHHHASCSGGDKSKAPVVSTADIENAAEVIKYYNTSLGVLKDMVKEKDVNAVLDYMEQKGKTPALSAIVPPAVVSKDSAIVLNPGNCFNEETRRNLKQNYTGLFQARTEFYANFDTYLSYLKKKDVTNAKKLLDVNYQLSTQMSEYKQNIFDILSPFTEQAELVLLVDNPLKAQIMSVRKMSSTMQSILNLYARKHRMDGPRIDLKVAELTKQLDAAKKLPVVNGHEGEMKSYQAFLSQVETFIKQVKKVREKGEYSDADYDMLTSAFETSII”, “not soluble”. For the sequence “MAHHHHHHMVGLRTRNVIDPIHGGVGRVIGGKGVSIDRNDGSIISDNEGENDRNGGDIPKAEGEEGRDAQDKGNAKVVMPIDEANQSNIANICSCDFTERLNFIPQEKTKVVCNLNPHHGEEVKIWVNKEYEVKCFQNSRVYCPSKDNIVNNTDITTYSPKLKYNISDVVHRDREVKEYHLQIDKDASDILLFCSIKPKQVSELLEGEVKINLKREISEEYSIPDEHGIHACNFSKGNLDISPSAGFYYKNDRSVSCIYLVIPNKLFLIKLPKLDIVTNQLLPSLVNCLSEHSFINFNLKHVEEGDESISLHLSFGDFKRTFNLSCAFDLSEYVIEPCLLGKKGIVTFYFNA”, the “soluble on expression in E. coli” value was “not soluble”. The entry for “MHHHHHHSSGRENLYFQGFRGTDPGDVVIEELFNRIPQANVRTTSEYMQSAADSLVSTSLWNTGQPFRVESELGERPRTLVRGTVLGQEDPYAYLEATDQETGESFEVHVPYFTERPPSNAIKQMKEEVLRLRLLRGIKNQKQAKVHLRFIFPFDLVKDPQKKKMIRVRLDERDMWVLSRFFLYPRMQSNLQTFGEVLLSHSSTHKSLVHHARLQLTLQVIRLLASLHHYGLVHTYLRPVDIVLDQRGGVFLTGFEHLVRDGASAVSPIGRGFAPPETTAERMLPFGQHHPTLMTFAFDTWTLGLAIYWIWCADLPNTDDAALGGSEWIFRSCKNIPQPVRALLEGFLRYPKEDRLLPLQAMETPEYEQLRTELSAALPLYQTDGEPTREGGAPPSGTSQPDEAGAAEAVTAI” is “soluble”; for “SSKAIPKQDIPEIAYERFTLPNGLTVIVHEDHKAPVIAVNVWYHIGSADEPARKTGFAHLFEHLMFSGSENHKASYFQPFEKIGATGMNGTTWFDRTNYFQTVPTTALDMALWMESDRMGHLLGAIGQKELDTQRGVVKNEKRQRENVPYGRVTQNILSNLFPANHPYQHSTIGSMEDLEAASLADVKSWFQAHYGAANATLVLAGDITLAEARDKAAKYFGDIPAGPPVA” it is “not soluble”; for “MNEAEQELYEALVAICQTSGFLLLEELPTDLPDQPFVYLGDSKELPKPTKSAILGEIELIMHVYGALSERQQISTIKGTILRQATSNLKRTAHFNWGIKHQEVKAQMVKDTKQMKKTIWHAVLPLHMQFY” it is “not soluble”. The result for “MHHHHHHSSGRENLYFQGIPTISELKKDRIIPHVFPNDKIDLNVDLFISFKAGKEVNHGNVLDIAGTGSVPRNIKFSEEPPDGYCFVLFMVDPDYPSRLRPDGKEYIHWVVSGIKTKELIKGTQKNCVTILPYVGPSIKKGTGLHRISFIISLIKEEDKDNITGLPHYKGEKYITRVKFNNYESVHNIAQINNMKIVGYNWCQIE” reads “soluble”. In the case of “MAHHHHHHMHLDEEYGNRSSSVSCDSSDAASAHSSSSDSASSAGGRQQRQRGNGSGGTETASLLSLPTASHANHAGCSVCGSATSLASRVSLLSTLSQHSAASYLSFISVLRPSITAGSAAGGTGAGGSADGDGAAGAGQQMHESEDGNTNLPLILLEQLALGLHRFMEAYPAELLDRYGLRSVSWSSIARMFATVEKSLVNTTTTAGAAAGAAAAAAPRQANHFPNDQEPPQPLFNLAQDIRYNKGMGYECLGLLFAKVVAPLLDPASSRAIASTSWSPPQQHQLRRSTGEATGTEDDDGSGGGARSDGGGTQEEFFANAAAVAATVGRAVLTIDDDPATRASVEAALSRCLTAYETVAPQVVDMNLPTILRLAARTAATSAGSTTSLRASASPSSLSIVLVDFVRDITARLGRGNDLPHLVDALLQRGDFAANASATAAASAVVDGSGDKASTIRSLRAVFSLPPVRQAVMEAAGTSLDPESLLRRLSGVAAELEEDNKSSSSSSSAQDEKQVELSSTARSCRKHDDARVQRMLLALELMEALLAGVTPTCVSASAVLEHTTQLELLLSSSFMAAVEELKGVCGEALDDRRALMIQHMYTIRQCRAVTILCLQDLGTQQVHDYLRMLEDALWQLTSHVGNLVGSLTLAELQPLLRPHPARYGGSEVLAPSPSALEQLQVQLLPSSLILQRPVASARSDRRPGNSRRARRGAP”, the “soluble on expression in E. coli” value was “not soluble”. The entry for “MTQSNPFQQYGITSGLAAAAAAKASVLAAMGTISDYVGVPTPIGLRIEVKVEMMKQIDARSGIAAVRKFSGDNPDTLNGALFESRAVIRDDGLINIFAGEGIGVAVSDGLPVRRGDPAINPVARMMIENAVREVSGSAGFDVYISVPGGEDLARDTMNPRVGISGGISILGTTGIEEPVSGPDYEAHIEYLLQTGRCVSTVAVMCPGNTAMRFAESYLRLHPASFILTGDRIGSAIEMAIEKGYREIVVFGLPGKLVKMAAGVMNTHSRIADARFETIAAYAALNGADRDTISKILSSNTVESAFAVLRSIGLLDSVAGAIASRIVERLRSPVWQIRRILLRHDRFRRQAIRVSPVAGHIETGE” is “not soluble”.

For “SAMRQTPLTCSGHTRPVVDLAFSGITPYGYFLISACKDGKPMLRQGDTGDWIGTFLGHKGAVWGATLNTEATKAATAAADFTAKVWDAVTGDEVLTLAHKHIVKSVNFTQDSNYLLTGGNDKVLRIYDLSKPEAEPQEIAGHTSAIKKALWCNNDQQILSAADDKTIRLWDKNTNEAVKTLSFDASVSSMEYIPDGETLVITYGRTIAFYNAHSLDLIKTVDAPASIHSASLHPDKDFFVAGGDDFKLYKYDYTTKEEMESYKGHFGPVHCVRFSPDGELYASGSEDGTLRLWQTAVGKTYGLWKCVLPEELSSENSEALYCPPAEIKA”, the “soluble on expression in E. coli” value is “soluble”.

The values are drawn from the DeepSol protein solubility set.
